From US8301398 (WALTER AND ELIZA HALL INSTITUTE OF MEDICAL RESEARCH, dated 2012)

B1: IR485 (residues 1-485 of the insulin receptor) with enterokinase cleavage site and c-myc epitope tag (receptor)
chain: HLYPGEVCPGMDIRNNLTRLHELENCSVIEGHLQILLMFKTRPEDFRDLSFPKLIMITDYLLLFRVYGLESLKDLFPNLTVIRGSRLFFNYALVIFEMVHLKELGLYNLMNITRGSVRIEKNNELCYLATIDWSRILDSVEDNHIVLNKDDNEECGDICPGTAKGKTNCPATVINGQFVERCWTHSHCQKVCPTICKSHGCTAEGLCCHSECLGNCSQPDDPTKCVACRNFYLDGRCVETCPPPYYHFQDWRCVNFSFCQDLHHKCKNSRRQGCHQYVIHNNKCIPECPSGYTMNSSNLLCTPCLGPCPKVCHLLEGEKTIDSVTSAQELRGCTVINGSLIINIRGGNNLAAELEANLGLIEEISGYLKIRRSYALVSLSFFRKLRLIRGETLEIGNYSFYALDNQNLRQLWDWSKHNLTTTQGKLFFHYNPKLCLSEIHKMEEVSGTKGRQERNDIALKTNGDKASCENELLKFSYIRTSFDKISDDDDKEQKLISEEDLN
notes: also called IR485/myc; soluble IR485

Legend:
[1] = target: B1; assay: sandwich ELISA, biotinylated 83-7 as developing antibody
[2] = target: the molecule itself; assay: gel filtration on Superdex 200 HR; monomeric on non-reduced SDS-PAGE
Text: Further purification was effected by gel filtration on Superdex 200 HR (Pharmacia, Sweden) in TBSA, monitored at 280 nm.

binding result [1] | Binder | binding result [2]
binds | anti-insulin receptor monoclonal antibody 83-7 (whole antibody) (antibody, V domains shown, also called Mab 83-7) VH: QVQLKESGPGLVAPSQSLSITCTVSGFPLTAYGVNWVRQPPGKGLEWLGMIWGDGNTDYNSALKSRLSISKDNSKSQVFLKMNSLQTDDTARYYCARDPYGSKPMDYWGQGTSVTVSS VL: DIVMSQSPSSLVVSVGEKVTMSCKSSQSLLYSSNQKNFLAWYQQKPGQSPKLLIYWASTRESGVPDRFTGSGSGTDFTLTISSVKAEDLAVYYCQQYFRYRTFGGGTKLEIKR | –
– | B1 | binds
